Changes are numbered by the printed parent chain.
B1: 178K 1B2 mAb: mouse monoclonal antibody raised against E1-KLH (56); IgG2b, κ; heavy chain SEQ ID NO 84, light chain SEQ ID NO 108 (antibody)
heavy: MNFGLSLIFLALILKGVQCEVQLVESGGDLVKPGGSLKLSCAASGFTFTNYVMSWVRQTPDKRLEWVATINSGGRYAYYPDSVKGRFTISRDNAKNTLYLQMSSLKSEDTAMYYCAGGNNLDYWGQGTTLTVSSAKTTPPSVYPLAPGCGDTTGSSVTLGCLVKGYFPESVTVTWNSGSLSSSVHTFPALLQSGLYTMSSSVTVPSSTWLSQTVTCSVAHPASSTTVDKKLEPSGPISTIKPCPPCKECHKCPAPNLEGGPSVFIFPPNIKDVLMISLTPKVTCVVVDVSEDDPDVQISWFVNNVEVHTAQTQTHREDYNSTIRVVSALPIQHQDWMSGKEFKCKVNNKDLPSPIERTISKIKGLVRAPQVYILPPPAEQLSRKDVSLTCLVVGFNPGDISVEWTSNGHTEENYKDTAPILDSDGSYFIYSKLNMKTSKWEKTDSFSCNVRHEGLKNNYLKKTISRSPGK
light: MRFSAQLLGLLVLWIPGSTADIVMTQAAFSNPVTLGTSASISCRSSKSLLQRNGITYLYWYLQKPGQSPQLLIYRLSNLASGVPDRFSSSGSGTDFTLRISRVEAEDVGVYYCGQDLELPYTFGGGTKLEIKRADAAPTVSIFPPSSEQLTSGGASVVCFLNNFYPKDINVKWKIDGSERQNGVLNSWTDQDSKDSTYSMSSTLTLTKDEYERHNSYTCEATHKTSTSPIVKSFNRNEC
B2: 178H 4B1 mAb: mouse monoclonal antibody raised against E1-KLH (56); IgG2b, κ; heavy chain SEQ ID NO 83, light chain SEQ ID NO 107 (antibody)
heavy: MNFGLSLIFLALILKGLQCEVQLVESGGDLVKPGGSLKLSCAASGFTFSRNVMSWVRQTPDKRLEWVATISSGGVHTYYLDSVKGRFTIFRDNAKNTLYLQMNSLQSEDTAMYYCAAGNALDYWGQGTSVTVSSAKTTPPSVYPLAPGCGDTTGSSVTLGCLVKGYFPESVTVTWNSGSLSSSVHTFPALLQSGLYTMSSSVTVPSSTWPSQTVTCSVAHPASSTTVDKKLEPSGPISTINPCPPCKECHKCPAPNLEGGPSVFIFPPNIKDVLMISLTPKVTCVVVDVSEDDPDVRISWFVNNVEVHTAQTQTHREDYNSTIRVVSALPIQHQDWMSGKEFKCKVNNKDLPSPIERTISKIKGLVRAPQVYILPPPAEQLSRKDVSLTCLVVGFNPGDISVEWTSNGHTEENYKDTAPVLDSDGSYFIYSKLDIKTSKWEKTDSFSCNVRHEGLKNYYLKKTISRSPGK
light: B1 light with V23M, A39G, Q51H, R52S, R75Q, L76M, T122S, G125S
B3: 178K 2B7 mAb: mouse monoclonal antibody raised against E1-KLH (56); IgG2b, κ; heavy chain SEQ ID NO 87, light chain SEQ ID NO 111 (antibody)
heavy: B1 heavy with K32R, A43S, T47I, T49S, Y76F, A77T, Y99F, S103N, S107P, M112I
light: B1 light with A28E, N53S, L76M, L117M

Columns and labels:
[1] = Competitive ELISA screening of hybridoma supernatants on E1-OVA (55), inhibitor MDA; type: binding; settings: for E1-OVA (55) Binding, OD650 nm +MDA: hybridoma supernatant in the presence of 10 μg/mL MDA; for % Inhibition by 10 μg/mL of MDA: inhibition of mAb/E1-OVA (55) binding
Protocol: (§1) Competitive ELISA was used to assess the presence of anti-Ecstasy-class antibodies in animal sera, hybridoma supernatants, and monoclonal antibody (mAb) samples as well as to estimate the level of antibody cross reactivity to amphetamine (Amph) and methamphetamine (mAmph). Antisera and antibody samples were used at the dilution giving a response of about OD=1 at 650 nm (OD650 nm) in an indirect ELISA. Hybridoma supernatants were diluted 1:2 in PBS. (±)-MDMA, (±)-MDA, (±)-amphetamine, and (±)-methamphetamine were used as inhibitors (Cerilliant Corporation, Round Rock, TX). Microtiter ELISA plates were coated and blocked as described above for indirect ELISA. The inhibitors were serially diluted in PBS. 25 μL of the diluted inhibitor was mixed with 25 μL of fixed appropriate antiserum or antibody sample dilution. The mixture was incubated over the E1-OVA (55) solid phase for 1 h. The plates were washed as described above and the bound antibodies were detected with anti-rabbit or anti-mouse IgG HRP-conjugates and TMB substrate as described above.
(§2) The supernatants were screened in a competitive ELISA for the presence of anti-ecstasy compound monoclonal antibodies (mAbs) as follows. 25 μL of the hybridoma supernatant was mixed with equal volume of PBS alone or containing 20 μg/mL inhibitor (MDA or MDMA) were incubated for 1 h in the wells of E1-OVA (55) coated ELISA plates. The plates were washed and the presence of bound mAbs were detected using goat anti-mouse IgG (Fc)-HRP conjugate and TMB substrate as described above. The level of inhibition of mAb/E1-OVA (55) binding in the presence of the inhibitor was estimated using a Percent (%) Inhibition calculated by the below formula:
(§3) [formula] • where “OD650 nm w/o Inhibitor” is the binding response of the antibody sample diluted in PBS alone (with no inhibitor), and the “OD650 nm with Inhibitor” is the binding response of the same antibody sample in the presence of 10 μg/mL of inhibitor (i.e., MDA or MDMA).

[2] = Competitive ELISA of purified antibodies on E1-OVA (55), amphetamine and methamphetamine cross reactivity; type: binding
Protocol: as §1
(§4) The anti-ecstasy class mAbs were purified from clarified and filtered hybridoma culture supernatants on a recombinant Protein A Sepharose Fast Flow (GE Life Sciences, Boston USA), dialyzed against PBS containing 0.02% sodium azide and stored at 4° C. The purified mAbs were tested for MDA and MDMA reactivity as well as amphetamine (Amph) and methamphetamine (mAmph) cross reactivity in a competitive assay.

[3] = system: E1-OVA (55); assay: ELISA binding of hybridoma supernatant to E1-OVA (55) coated plates, without inhibitor; settings: hybridoma supernatant mixed with PBS alone
Protocol: All ELISA steps were performed at rt. Wells of a Nunc Maxi-Sorp™ flat-bottom ELISA plates (ThermoFisher Scientific, Waltham, MA) were coated with 50 μL E1-OVA (55), E2-OVA (65), and E3-OVA (72) at a concentration of 1 μg/mL in PBS for 1 h. The plates were flicked dried and remaining binding sites were blocked with 200 μL per well of blocking solution (0.5% casein, 0.05% (v/v) Tween 20 in PBS) for one hour. Plates were washed six times with MilliQ water containing 0.05% (v/v) Tween 20 on Biotek 405 LS plate washer equipped with microplate Biostacker 3 (Biotek, Winooski, VT). 50 μL of serially diluted antibody samples (serial dilutions of serum, hybridoma supernatant, or monoclonal antibodies in PBS) were added to each well and incubated for one hour. Unbound antibodies were removed by washing as described above, and 50 μL of secondary goat anti-rabbit IgG HRP or goat anti-mouse IgG (Fc)-HRP conjugate (ThermoFisher Scientific, USA), diluted 1:3,000 in the blocking solution was added to each well for detection bound rabbit or mouse antibody, respectively. Plates were incubated for one hour, washed and 100 μL of TMB substrate (Moss, Pasadena, MD) was added for 15 min to determine bound peroxidase. Optical density (OD) of the samples at 650 nm was measured using an ELISA plate reader (Molecular Devices LLC., San Jose, CA). The titer of each serum sample was designated as the maximum dilution that yielded at least twice the absorbance of the same dilution of the nonimmune control serum.
as §2
[formula] • where “OD650 nm w/o Inhibitor” is the binding response of the antibody sample diluted in PBS alone (with no inhibitor), and the “OD650 nm with Inhibitor” is the binding response of the same antibody sample in the presence of 10 μg/mL of inhibitor (i.e., MDA or MDMA). […]

[4] = Competitive ELISA screening of hybridoma supernatants on E1-OVA (55), inhibitor MDMA; type: binding; settings: for E1-OVA (55) Binding, OD650 nm +MDMA: hybridoma supernatant in the presence of 10 μg/mL MDMA; for % Inhibition by 10 μg/mL of MDMA: inhibition of mAb/E1-OVA (55) binding
Protocol: as §1, §2, §3

[5] = Competitive ELISA of purified antibodies on E1-OVA (55), MDMA and MDA reactivity; type: binding; settings: 10,000-0.1 ng/mL range of drug concentration
Protocol: as §1, §4

[6] = Prototype EMIT ecstasy assay, cross-reactivity with amphetamine; type: biochemical; settings: conjugate Compound 58; negative urine pool
[7] = Prototype EMIT ecstasy assay, cross-reactivity with methamphetamine; type: biochemical; settings: conjugate Compound 58; negative urine pool

Row | Molecule | E1-OVA (55) Binding, OD650 nm +MDA [1] | % Inhibition by 10 μg/mL of MDA [1] | cross reactivity in the presence of 1,000 ng/ml of Amph or mAmph [2] | E1-OVA (55) Binding, OD650 nm w/o inhib [3] | E1-OVA (55) Binding, OD650 nm +MDMA [4] | % Inhibition by 10 μg/mL of MDMA [4] | relative sensitivity to MDMA and MDA in competitive ELISA [5] | Concentrations (μg/mL) of Structurally Related Compounds Equivalent to 500 ng/mL MDMA Cutoffs, (+/−) Amph [6] | Concentrations (μg/mL) of Structurally Related Compounds Equivalent to 500 ng/mL MDMA Cutoffs, (+/−) mAmph [7]
1 | B1 | 0.730 OD650 nm | 82% | do not show any significant cross reactivity | 4.000 OD650 nm | 0.667 OD650 nm | 83% | bind MDMA stronger than MDA |  | 
2 | B2 | 0.105 OD650 nm | 97% |  | 3.164 OD650 nm | 0.093 OD650 nm | 98% | bind MDMA stronger than MDA | 40 µg/mL | 40 to 50 µg/mL
3 | B3 | 0.429 OD650 nm | 88% | do not show any significant cross reactivity | 3.497 OD650 nm | 0.374 OD650 nm | 89% | bind MDMA stronger than MDA | 40 to 45 µg/mL | 50 to 60 µg/mL
